Here are results for four proteins from paper PMC7752791, “Dehydroquinate dehydratase/shikimate dehydrogenases involved in gallate biosynthesis of the aluminum-tolerant tree species Eucalyptus camaldulensis” (Planta, 2020).

Holding throughout (type): biochemical, Eucalyptus camaldulensis
Substrate in data set [1]: O=C1C[C@@](O)(C(=O)O)C[C@@H](O)[C@@H]1O
As to the kind of experiment: HPLC of 3-DHS formed, Michaelis-Menten fit. As to conditions: DQD activity, no cofactor, pH 7, 30 °C. An excerpt: HPLC of 3-DHS formed, Michaelis-Menten fit on EcDQD/SDH1

Substrate in data set [2]: O=C(O)C1=C[C@@H](O)[C@@H](O)[C@H](O)C1
Nature of the data set: purified protein. Conditions: shikimate oxidation with NADP+, pH 9, 30 °C.

Substrate in data set [3]: O=C(O)C1=CC(=O)[C@@H](O)[C@H](O)C1
As to the kind of experiment: purified protein. As to conditions: shikimate formation with NADPH.

Substrate in data set [4]: NC(=O)c1ccc[n+]([C@@H]2O[C@H](COP(=O)(O)OP(=O)(O)OC[C@H]3O[C@@H](n4cnc5c(N)ncnc54)[C@H](OP(=O)(O)O)[C@@H]3O)[C@@H](O)[C@H]2O)c1
As to the kind of experiment: purified protein. Conditions: shikimate oxidation, pH 9, 30 °C, varied: cofactor.

Substrate in data set [5]: NC(=O)C1=CN([C@@H]2O[C@H](COP(=O)(O)OP(=O)(O)OC[C@H]3O[C@@H](n4cnc5c(N)ncnc54)[C@H](OP(=O)(O)O)[C@@H]3O)[C@@H](O)[C@H]2O)C=CC1
Nature of the data set: purified protein. As to conditions: shikimate formation from 3-DHS, varied: cofactor.

Substrate in data set [6]: O=C1C[C@@](O)(C(=O)O)C[C@@H](O)[C@@H]1O
Nature of the data set: HPLC of 3-DHS formed, Michaelis-Menten fit. As to conditions: DQD activity, no cofactor, pH 7, 30 °C. An excerpt:
HPLC of 3-DHS formed, Michaelis-Menten fit on EcDQD/SDH3
This is another data set of the same source.

Substrate in data set [7]: O=C1C[C@@](O)(C(=O)O)C[C@@H](O)[C@@H]1O
Nature of the data set: HPLC of 3-DHS formed, Michaelis-Menten fit. As to conditions: DQD activity, no cofactor, pH 7, 30 °C. An excerpt: HPLC of 3-DHS formed, Michaelis-Menten fit on EcDQD/SDH2
The source holds these as a separate data set.

Substrate in data set [8]: O=C(O)[C@]1(O)C[C@@H](O)[C@@H](O)[C@H](O)C1
As to the kind of experiment: purified protein. Conditions: quinate oxidation with NAD+, pH 9, 30 °C.

Substrate in data set [9]: O=C1C[C@@](O)(C(=O)O)C[C@@H](O)[C@@H]1O
As to the kind of experiment: purified protein. Conditions: quinate formation with NADH, pH 7.5, 30 °C.

Substrate in data set [10]: NC(=O)C1=CN([C@@H]2O[C@H](COP(=O)(O)OP(=O)(O)OC[C@H]3O[C@@H](n4cnc5c(N)ncnc54)[C@H](O)[C@@H]3O)[C@@H](O)[C@H]2O)C=CC1
Nature of the data set: purified protein. Conditions: quinate formation from 3-DHQ, pH 7.5, 30 °C, varied: cofactor.

Substrate in data set [11]: NC(=O)c1ccc[n+]([C@@H]2O[C@H](COP(=O)(O)OP(=O)(O)OC[C@H]3O[C@@H](n4cnc5c(N)ncnc54)[C@H](O)[C@@H]3O)[C@@H](O)[C@H]2O)c1
As to the kind of experiment: purified protein. As to conditions: quinate oxidation, pH 9, 30 °C, varied: cofactor.

B1: EcDQD/SDH1 (Eucalyptus camaldulensis) (protein)
chain: ASTGNVLLATSSAPHEMESGAVRKNSTLICVPVMADSVEEMVIQLDKAKSSGADLVEIRVDSLKNLSPHEDLKTLIKASALPTLFTYRPKWEGGQYDGDDKPRLETLRLAMELGADYIDVELKVASEFNASIQGRKPEKCKVIVSSHNYENTPSAEDLSNLVARIQAAGADIVKIATTALDITDVERMFHITVHSQVSSVPVIGMVMGERGLISRVLCAKFGGFLTFGTLESGVVSAPGQPTIKDLLDLYNFRSIGPDTKVFGIIGKPVGHSKSPLLYNQAFKSAGFDGVFLHLLVDDVASFLQTYSSTDFAGFSCTIPHKEAAVKCCDEVDPVAKSIGAVNCIIRRQSDAKLFGYNTDYVGAISAIEDGLRGSQNGNSAGASPLNGKLFVVIGAGGAGKALGYGAKEKGARVVIANRTYDRARELAETIGGDALSLADLENFHPEDGMILANTTSIGMQPKVDETPIPKHALKHYSLVFDAVYTPKITRLLKEAEECGATIVSGLEMFIGQAYGQYERYTGLPAPKELFRKIMSKY
notes: genome locus by order of listing EcC055014.20
For the protein B1, the Km – broadly, the concentration of substrate that gives half-maximal velocity – in data set [1] stood at 449 ± 22 µM; in “purified protein [2]” it was 32.6 ± 1.9 µM; in “purified protein [3]” (pH 6.5, 30 °C) it was 381 ± 34 µM; in “purified protein [4]” it was 56.5 ± 2.3 µM; in “purified protein [5]” (pH 6.5, 30 °C) it was 49.5 ± 3.6 µM. Further, the Vmax (commonly the top rate of the reaction or transport when substrate is in excess) in data set [1] worked out at 63 µmol/min/mg; in the data set “purified protein [2]” it was 780 ± 6 µmol/min/mg; in “purified protein [3]” (pH 6.5, 30 °C), 318 µmol/min/mg; in the data set “purified protein [4]”, 822 ± 6 µmol/min/mg; in “purified protein [5]” (pH 6.5, 30 °C) it was 404 µmol/min/mg. Also, the kcat (usually the number of substrate molecules converted per active site and unit of time at saturation) in data set [1] stood at 60.4 ± 0.7 s⁻¹; in the data set “purified protein [2]”, 755 ± 6 s⁻¹; in “purified protein [3]” (pH 6.5, 30 °C), 307 ± 5 s⁻¹; in “purified protein [4]”, 792 ± 6 s⁻¹; in the data set “purified protein [5]” (pH 6.5, 30 °C), 389 ± 9 s⁻¹. Moreover, the kcat/Km – broadly, the second-order rate constant that governs catalysis at low substrate concentration – in data set [1] came out at 135000 M⁻¹ s⁻¹; in the data set “purified protein [2]”, 2.32e+07 M⁻¹ s⁻¹; in the data set “purified protein [3]” (pH 6.5, 30 °C), 805000 M⁻¹ s⁻¹; in “purified protein [4]”, 1.4e+07 M⁻¹ s⁻¹; in “purified protein [5]” (pH 6.5, 30 °C) it was 7.86e+06 M⁻¹ s⁻¹.

B2: EcDQD/SDH3 (Eucalyptus camaldulensis) (protein)
chain: GSVPFTTSDLQTSTSGFRSSPTLLCTPLMGTTVDQMLIEMRKAKEIGADLVEIRLDCLRNFNPHQDLQILIKQSPLPTLVTYRPVWEGGQYEGDESKRQDALRLAMQLGAHYIDVELEVAHDFNSSILGKKPDNFKIIVSSHNFHNTPSAEAIGNLVARIQATGADIAKIATTALDITDCARIFQITVHSQIPIIGIVMGERGLISRILSPKFGGYLTYGALEAGAISAPGQPTAKDLLDLYNFRLIRPDTKVYGIIGKPVGHSKSPLLFNASYKSVGLNAVYLHFLVDDVEKFFNTYSAVDFASGCSCTIPHKEAALKCMDEIDPIAKKIGAINNIVRRPDGTLTAFNTDYIGAISAIEDGLRGLNGVSSGASPLAGKLFVVLGAGGAGKSLAYGAAQKGARVVVANRTFERAKELADKVGGQAMTLAEVENFHPEEGMVLANTTSVGMKPKIDETPLAKHALKHYCLVFDAIYTPKDTRLLREARETGAVIVYGTEMLIRQGFEQYKNFTGLPAPEELFRTLMEKHA
notes: genome locus by order of listing EcC054875.120
On to B2, for which the Km amounted to 882 ± 42 µM in [6]; 3640 ± 360 µM in “purified protein [2]”; 878 ± 106 µM in the data set “purified protein [3]” (pH 6.5, 30 °C); 41.5 ± 2.1 µM in the data set “purified protein [4]”; 23.1 ± 1.4 µM in the data set “purified protein [5]” (pH 6.5, 30 °C). For the same protein, the Vmax in data set [6] stood at 3.83 µmol/min/mg; in “purified protein [2]”, 84 µmol/min/mg; in “purified protein [3]” (pH 6.5, 30 °C), 60 µmol/min/mg; in the data set “purified protein [4]”, 73.2 µmol/min/mg; in the data set “purified protein [5]” (pH 6.5, 30 °C), 77.4 µmol/min/mg. Besides, the kcat in data set [6] came out at 3.67 ± 0.05 s⁻¹; in the data set “purified protein [2]” it was 80.7 ± 2.9 s⁻¹; in “purified protein [3]” (pH 6.5, 30 °C) it was 57.6 ± 1.7 s⁻¹; in the data set “purified protein [4]”, 70.2 ± 0.6 s⁻¹; in “purified protein [5]” (pH 6.5, 30 °C), 74.1 ± 1.2 s⁻¹. In addition, the kcat/Km in data set [6] stood at 4160 M⁻¹ s⁻¹; in the data set “purified protein [2]” it was 22200 M⁻¹ s⁻¹; in “purified protein [3]” (pH 6.5, 30 °C), 65600 M⁻¹ s⁻¹; in the data set “purified protein [4]”, 1.69e+06 M⁻¹ s⁻¹; in the data set “purified protein [5]” (pH 6.5, 30 °C) it was 3.21e+06 M⁻¹ s⁻¹.

B3: EcDQD/SDH2 (Eucalyptus camaldulensis) (protein)
chain: TLSSIPLTAADLQIPAGGRRNSTLLCAPVMGESVDQMLGQIRAAKEQGADLVEVRLDFLKSFSPKQDLEILLKQSALPTLVTYRPKWEGGQYEGDDSQRLDALRLALELGADYVDVELQVAQEFFSSIQGKKPEKAKIIVSSHNYQNTPSSEELGNLVAKIQATGADIVKIATTALDISDCPRIFEVLAHSQVPTIAIAMGERGLISRILAAKFGGYLTFGAIEAGVVSAPGQPSIKDLLDLYNLRQLGPDTKVHGVIGKPIGHSKSPHLYNAAFKSVNFNGIYLPLLVDNVANFINAYSSPDFVGYSYTIPHKEDGLRCCDEVDPIAKAIGAISQMIRRPTDGKMIGYNVDYLGAIAAIEEALRASNGASPTTTSPLAGKLFVVIGAGGAGKALAYGAMEKGARVVVANRTYEKAKELASKVGGQAITLAELENFHPEDGMVLANTTSVGMKPNVDLTPLPKNALSRYCLVFDAIYTPKLTRLLREAQEVGAIPVYGTEMFINQAFVQFERFTGYPAPKQLIRDTLVKNS
notes: genome locus by order of listing EcC035206.10
Turning to B3, the Km in data set [7] is 322 ± 13 µM; in “purified protein [2]” it was 2050 ± 200 µM; in “purified protein [3]” (pH 8.5, 30 °C), 8830 ± 1210 µM; in “purified protein [4]”, 65.2 ± 2.7 µM; in “purified protein [5]” (pH 8.5, 30 °C), 4.38 ± 0.43 µM. Further, the maximal velocity (Vmax) in data set [7] came out at 32.4 µmol/min/mg; in the data set “purified protein [2]”, 153 µmol/min/mg; in the data set “purified protein [3]” (pH 8.5, 30 °C) it was 49.3 µmol/min/mg; in the data set “purified protein [4]”, 141 µmol/min/mg; in the data set “purified protein [5]” (pH 8.5, 30 °C), 28.9 µmol/min/mg. The kcat in data set [7] came out at 30.9 ± 0.3 s⁻¹; in “purified protein [2]” it was 146 ± 4 s⁻¹; in the data set “purified protein [3]” (pH 8.5, 30 °C), 47 ± 3.3 s⁻¹; in “purified protein [4]” it was 135 ± 1 s⁻¹; in the data set “purified protein [5]” (pH 8.5, 30 °C), 27.6 ± 0.5 s⁻¹. Moreover, the kcat/Km in [7] was 96200 M⁻¹ s⁻¹; in “purified protein [2]”, 71300 M⁻¹ s⁻¹; in “purified protein [3]” (pH 8.5, 30 °C) it was 5320 M⁻¹ s⁻¹; in “purified protein [4]”, 2.07e+06 M⁻¹ s⁻¹; in the data set “purified protein [5]” (pH 8.5, 30 °C) it was 6.3e+06 M⁻¹ s⁻¹.

B4: EcDQD/SDH4a (EcQDHa) (Eucalyptus camaldulensis) (protein)
chain: GSLSLSSVGLTMVCAPVMGESVDQVVEEMHKAKAQGADVVEVRLDCIKQFQAHQDLEIILKSKPLPVIIVYRPKCEGGLYEGDETARLEALRSALKLGADYVDFELKVAAELMSKQNKLHCGGTKVIVSCFLDGVTPSKEELSNLATHMKATGADIIKIVTSASNITELAGLFHLLSYSQMPVVAYAVGERGLISQLLSPKFGSTLVYGSIEGMAVPGLPTLESLRKTYKVEHINSDTTVFGLISKPVGHSKGPILHNPTLRHMNFNGLYVPMFVDNLKEFFEVYSTPDFAGFSVGFPYKEAVIQFCDEVHPLAQTIGAVNTIVRRPSDGKLIGYNTDCEASVTAMEDALQECRCINGEKSLVSPLAGKEFVLVGAGGAGRALAFGAKTRGARIIIFDIDFERAKMLAHAVSGEARPFGDLPYFQPEKGSILANATPIGMHPNKDRIPVSEASLGVFQLVFDAVYTPRKTTLLKEAEAAGAITVSGVEMFLRQAIGQFNLFTGGEAPKEFMREIVLAKF
Regarding B4, in “purified protein [8]”, the Km was found to be 164 ± 10 µM, the Vmax was determined as 135 µmol/min/mg, the kcat came to 127 ± 2 s⁻¹ and the kcat/Km was 771000 M⁻¹ s⁻¹. Further, in “purified protein [9]”, the Km is 1400 ± 120 µM, the Vmax was 300 µmol/min/mg, the kcat amounted to 281 ± 7 s⁻¹ and the kcat/Km is 201000 M⁻¹ s⁻¹. Also, in “purified protein [10]”, the Km was 102 ± 9 µM, the Vmax stood at 318 µmol/min/mg, the kcat stood at 298 ± 8 s⁻¹ and the kcat/Km came to 2.92e+06 M⁻¹ s⁻¹. Also, in the data set “purified protein [11]”, the Km was 53.7 ± 1.7 µM, the Vmax was determined as 148 µmol/min/mg, the catalytic constant (kcat) is 139 ± 1 s⁻¹ and the kcat/Km was found to be 2.59e+06 M⁻¹ s⁻¹.
